Earlier results on one substance are cited in article PMC11349558.

The series has as its target histone H4 (UniProt P62805).

As for “fibrinogen D-domain (from UniProt P02671)”, the Kd was 2 nM.
